In series [1] the target is T1, PGL-3 RGG region peptide (native) (Caenorhabditis elegans, UniProt G5EBV6 623-693).
T1 sequence: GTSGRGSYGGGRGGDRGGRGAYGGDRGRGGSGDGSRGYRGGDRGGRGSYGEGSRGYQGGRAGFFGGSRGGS
Nature of the series: BLI; RNA on tip, RGG peptide in solution; 1:1 fit; KD ~2-fold higher than RGG:D1, value not given; BLI: 25 mM HEPES pH 7.5, 125 mM NaCl, 0.01 mg/ml BSA, 0.02% Tween-20, temperature not stated; condensate assays at 125 mM NaCl. Conditions: tags: none; unlabeled in BLI; label: 5' biotin; single strand. (In general: Biolayer interferometry detects binding as a change in optical thickness at a sensor tip.)

Series [2] deals with the molecule itself. Nature of the series: cross-linking; XL-MS: 7.5 uM full-length PGL-3, 2 mM DSBU, 1 h room temperature, 25 mM HEPES pH 7.5, 125 mM NaCl (condensing) or 500 mM NaCl (non-condensing); trypsin digest, LC-MS/MS, Scout search.
Series [3] deals with the molecule itself. The series can be described thus: mass photometry; unlabeled D1-D2 at 50 to 100 nM in 125 mM NaCl, 25 mM HEPES pH 7.5, TwoMP (Refeyn).
Series [4] concerns the target PGL-3(D1-D2) (C. elegans) (UniProt G5EBV6).
The target is the same in series [5]. This is another data set of the same source.
Series [6] has the same target. The source holds these as a separate data set.
The target of series [7] is T2, PGL-3(D1) (C. elegans, trace-labelled with DyLight 488 (NHS ester) in the FA crosslinking; biotinylated with NHS-PEG12-Biotin when immobilised in BLI).
T2 chain: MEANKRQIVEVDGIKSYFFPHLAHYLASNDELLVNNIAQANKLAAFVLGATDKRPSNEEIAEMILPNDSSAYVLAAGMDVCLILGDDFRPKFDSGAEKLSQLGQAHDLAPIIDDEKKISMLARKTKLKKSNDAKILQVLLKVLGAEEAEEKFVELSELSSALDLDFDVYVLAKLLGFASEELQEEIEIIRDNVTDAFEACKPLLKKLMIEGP
The series can be described thus: BLI.

Series [8] deals with T2, PGL-3(D1). Nature of the series: BLI; biotinylated D1 on streptavidin tips, RGG peptide in solution; 125 mM NaCl, 0.01 mg/ml BSA, 0.02% Tween-20, 25 mM HEPES pH 7.5; 1:1 binding model; Octet Red96.

“And” between values parts separate entries of the source, which are not always exact repeats. Equal entries are not always repeated.

B1: poly(U) 30-nt RNA (ssRNA)
RNA: UUUUUUUUUUUUUUUUUUUUUUUUUUUUUU
Regarding B1, the binding result in series [1] is given as “binds”.

B2: full-length, untagged PGL-3 (natural protein, C. elegans, UniProt G5EBV6 1-693, looked up)
chain: MEANKRQIVEVDGIKSYFFPHLAHYLASNDELLVNNIAQANKLAAFVLGATDKRPSNEEIAEMILPNDSSAYVLAAGMDVCLILGDDFRPKFDSGAEKLSQLGQAHDLAPIIDDEKKISMLARKTKLKKSNDAKILQVLLKVLGAEEAEEKFVELSELSSALDLDFDVYVLAKLLGFASEELQEEIEIIRDNVTDAFEACKPLLKKLMIEGPKIDSVDPFTQLLLTPQEESIEKAVSHIVARFEEASAVEDDESLVLKSQLGYQLIFLVVRSLADGKRDASRTIQSLMPSSVRAEVFPGLQRSVFKSAVFLASHIIQVFLGSMKSFEDWAFVGLAEDLESTWRRRAIAELLKKFRISVLEQCFSQPIPLLPQSELNNETVIENVNNALQFALWITEFYGSESEKKSLNQLQFLSPKSKNLLVDSFKKFAQGLDSKDHVNRIIESLEKSSSSEPSATAKQTTTSNGPTTVSTAAQVVTVEKMPFSRQTIPCEGTDLANVLNSAKIIGESVTVAAHDVIPEKLNAEKNDNTPSTASPVQFSSDGWDSPTKSVALPPKISTLEEEQEEDTTITKVSPQPQERTGTAWGSGDATPVPLATPVNEYKVSGFGAAPVASGFGQFASSNGTSGRGSYGGGRGGDRGGRGAYGGDRGRGGSGDGSRGYRGGDRGGRGSYGEGSRGYQGGRAGFFGGSRGGS
notes: PGL-3, C. elegans P granule protein, full length (D1, D2, internal IDR, C-terminal RGG region; residues to 693); also called PGL-3(FL); FL; not shown: 6xHis-MBP-6xHis, N-terminal, cleaved
Turning to B2, in series [2], the binding result was “binds”.

B3: PGL-3(D1-D2) (domain or fragment, C. elegans, UniProt G5EBV6 1-447, looked up)
chain: MEANKRQIVEVDGIKSYFFPHLAHYLASNDELLVNNIAQANKLAAFVLGATDKRPSNEEIAEMILPNDSSAYVLAAGMDVCLILGDDFRPKFDSGAEKLSQLGQAHDLAPIIDDEKKISMLARKTKLKKSNDAKILQVLLKVLGAEEAEEKFVELSELSSALDLDFDVYVLAKLLGFASEELQEEIEIIRDNVTDAFEACKPLLKKLMIEGPKIDSVDPFTQLLLTPQEESIEKAVSHIVARFEEASAVEDDESLVLKSQLGYQLIFLVVRSLADGKRDASRTIQSLMPSSVRAEVFPGLQRSVFKSAVFLASHIIQVFLGSMKSFEDWAFVGLAEDLESTWRRRAIAELLKKFRISVLEQCFSQPIPLLPQSELNNETVIENVNNALQFALWITEFYGSESEKKSLNQLQFLSPKSKNLLVDSFKKFAQGLDSKDHVNRIIESLEK
modifications: unlabeled in mass photometry; trace-labelled with DyLight 488 (partitioning) or Alexa Fluor 647 (pelleting) by NHS ester
notes: PGL-3, C. elegans, the first 447 amino acids, which span the folded domains D1 and D2; also called D1-D2 domain; not shown: 6xHis-MBP-6xHis, N-terminal, cleaved
The term stoichiometry N denotes a count of units in the complex or per binding partner. For B3, the “stoichiometry N” value in series [3] was 2 and 4 and 6.

B4: PGL-3(RGG) synthetic peptide spanning the RGG region (peptide)
chain: GTSGRGSYGGGRGGDRGGRGAYGGDRGRGGSGDGSRGYRGGDRGGRGSYGEGSRGYQGGRAGFFGGSRGGS
modifications: trace-labelled with Alexa Fluor 647 (NHS ester) in the FA crosslinking and partitioning; biotinylated with NHS-PEG12-Biotin when immobilised in BLI
As a reminder, the Kd is the equilibrium constant for the complex coming apart. In series [4], B4 returned a partition coefficient of the RGG peptide in D1-D2 condensates (5 uM each, in trans) of 1.3. The molecule further yielded a fraction of D1-D2 in the pellet (dense phase) with equimolar RGG peptide against buffer control in series [5] of 15%. The same molecule showed a viscosity of D1-D2 condensates formed with equimolar RGG peptide against buffer (embedded beads) in series [6] of 1.25 fold. The same molecule displayed a dissociation constant Kd in the series with PGL-3(D1) [7] of 1630 nM. In addition, in the series with PGL-3(D1) [8], the fold faster koff than RGG:poly(U) RNA is 10 fold, the fold faster kon than RGG:poly(U) RNA turned out to be 20 fold and the fold lower KD than RGG:poly(U) RNA was found to be 2 fold.
